# Assay results: patent US20090280138A1 (OXFORD BIOMEDICA UK, published 2009)
# Molecular target: T1, MHC class I molecule A*0101 (biotin (bound to streptavidin-coated plate))
# T1 construct: also called A1; HLA-A1
# Experiment: iTopia iScore
# Method: (§1) The 9 mers were tested for Peptide Binding, Off Rate and Affinity using iTopia Epitope Discovery System in accordance with the manufacturer's instructions. Briefly, 96 well microtitre plates coated with MHC molecules representing different MHC alleles are used to identify candidate peptides. […] Determinations are performed in duplicate using an ELISA plate reader and included allele specific positive controls.
# (§2) Finally, multiparametric analysis is performed on the results from these assays and an iScore is generated. The iScore represents a measure of the overall quality of peptide-MHC binding, enabling candidate peptides to be ranked in order of binding quality and allowing rational prioritisation of peptides for functional cellular follow-up studies.
row,Binder,iScore
1,LPSLRQLDL [5T4 9-mer peptide 71 LPSLRQLDL],0
2,LPSLRHLDL [5T4 9-mer peptide 117 LPSLRHLDL],0
3,SPLVELILN [5T4 9-mer peptide 87 SPLVELILN],0
4,ADLSPFAFS [5T4 9-mer peptide 78 ADLSPFAFS],0
5,VRAGAFEHL [5T4 9-mer peptide 67 VRAGAFEHL],0
6,NLFLTGNQL [5T4 9-mer peptide 48 NLFLTGNQL],0
7,RLDEVRAGA [5T4 9-mer peptide 65 RLDEVRAGA],0
8,PPLAELAAL [5T4 9-mer peptide 58 PPLAELAAL],0
9,LSHNPLADL [5T4 9-mer peptide 75 LSHNPLADL],0
10,PLADLSPFA [5T4 9-mer peptide 77 PLADLSPFA],0
11,AALNLSGSR [5T4 9-mer peptide 61 AALNLSGSR],0
12,RRPPLAELA [5T4 9-mer peptide 57 RRPPLAELA],0
13,LSPFAFSGS [5T4 9-mer peptide 79 LSPFAFSGS],0
14,SLRQLDLSH [5T4 9-mer peptide 72 SLRQLDLSH],0
15,IVPPEDERQ [5T4 9-mer peptide 92 IVPPEDERQ],0
16,RQLDLSHNP [5T4 9-mer peptide 73 RQLDLSHNP],0
17,PFAFSGSNA [5T4 9-mer peptide 80 PFAFSGSNA],0
18,VLPAGAFAR [5T4 9-mer peptide 53 VLPAGAFAR],0
19,LAELAALNL [5T4 9-mer peptide 59 LAELAALNL],0
20,LAVLPAGAF [5T4 9-mer peptide 52 LAVLPAGAF],0
21,EHLPSLRQL [5T4 9-mer peptide 70 EHLPSLRQL],0
22,AGAFEHLPS [5T4 9-mer peptide 68 AGAFEHLPS],0
23,ELILNHIVP [5T4 9-mer peptide 89 ELILNHIVP],0

# Molecular target: T2, MHC class I molecule A*0201 (biotin (bound to streptavidin-coated plate))
# T2 construct: also called A2; HLA-A2
# Experiment: iTopia iScore
# Method: as §1, §2
row,Binder,iScore
1,LPSLRQLDL [5T4 9-mer peptide 71 LPSLRQLDL],0.098
2,LPSLRHLDL [5T4 9-mer peptide 117 LPSLRHLDL],0.028
3,SPLVELILN [5T4 9-mer peptide 87 SPLVELILN],0.094
4,ADLSPFAFS [5T4 9-mer peptide 78 ADLSPFAFS],0.116
5,VRAGAFEHL [5T4 9-mer peptide 67 VRAGAFEHL],0
6,NLFLTGNQL [5T4 9-mer peptide 48 NLFLTGNQL],0.107
7,RLDEVRAGA [5T4 9-mer peptide 65 RLDEVRAGA],0.422
8,PPLAELAAL [5T4 9-mer peptide 58 PPLAELAAL],0.075
9,LSHNPLADL [5T4 9-mer peptide 75 LSHNPLADL],0.095
10,PLADLSPFA [5T4 9-mer peptide 77 PLADLSPFA],0.556
11,AALNLSGSR [5T4 9-mer peptide 61 AALNLSGSR],0
12,RRPPLAELA [5T4 9-mer peptide 57 RRPPLAELA],0
13,LSPFAFSGS [5T4 9-mer peptide 79 LSPFAFSGS],0.064
14,SLRQLDLSH [5T4 9-mer peptide 72 SLRQLDLSH],0
15,IVPPEDERQ [5T4 9-mer peptide 92 IVPPEDERQ],0
16,RQLDLSHNP [5T4 9-mer peptide 73 RQLDLSHNP],0
17,PFAFSGSNA [5T4 9-mer peptide 80 PFAFSGSNA],0
18,VLPAGAFAR [5T4 9-mer peptide 53 VLPAGAFAR],0.081
19,LAELAALNL [5T4 9-mer peptide 59 LAELAALNL],0.72
20,LAVLPAGAF [5T4 9-mer peptide 52 LAVLPAGAF],0.074
21,EHLPSLRQL [5T4 9-mer peptide 70 EHLPSLRQL],0.046
22,AGAFEHLPS [5T4 9-mer peptide 68 AGAFEHLPS],0
23,ELILNHIVP [5T4 9-mer peptide 89 ELILNHIVP],0.067

# Molecular target: T3, MHC class I molecule A*0301 (biotin (bound to streptavidin-coated plate))
# T3 construct: also called A3; HLA-A3
# Experiment: iTopia iScore
# Method: as §1, §2
row,Binder,iScore
1,LPSLRQLDL [5T4 9-mer peptide 71 LPSLRQLDL],0
2,LPSLRHLDL [5T4 9-mer peptide 117 LPSLRHLDL],0
3,SPLVELILN [5T4 9-mer peptide 87 SPLVELILN],0
4,ADLSPFAFS [5T4 9-mer peptide 78 ADLSPFAFS],0
5,VRAGAFEHL [5T4 9-mer peptide 67 VRAGAFEHL],0
6,NLFLTGNQL [5T4 9-mer peptide 48 NLFLTGNQL],0
7,RLDEVRAGA [5T4 9-mer peptide 65 RLDEVRAGA],0.057
8,PPLAELAAL [5T4 9-mer peptide 58 PPLAELAAL],0
9,LSHNPLADL [5T4 9-mer peptide 75 LSHNPLADL],0
10,PLADLSPFA [5T4 9-mer peptide 77 PLADLSPFA],0
11,AALNLSGSR [5T4 9-mer peptide 61 AALNLSGSR],0
12,RRPPLAELA [5T4 9-mer peptide 57 RRPPLAELA],0
13,LSPFAFSGS [5T4 9-mer peptide 79 LSPFAFSGS],0
14,SLRQLDLSH [5T4 9-mer peptide 72 SLRQLDLSH],0
15,IVPPEDERQ [5T4 9-mer peptide 92 IVPPEDERQ],0
16,RQLDLSHNP [5T4 9-mer peptide 73 RQLDLSHNP],0
17,PFAFSGSNA [5T4 9-mer peptide 80 PFAFSGSNA],0
18,VLPAGAFAR [5T4 9-mer peptide 53 VLPAGAFAR],0.027
19,LAELAALNL [5T4 9-mer peptide 59 LAELAALNL],0
20,LAVLPAGAF [5T4 9-mer peptide 52 LAVLPAGAF],0
21,EHLPSLRQL [5T4 9-mer peptide 70 EHLPSLRQL],0
22,AGAFEHLPS [5T4 9-mer peptide 68 AGAFEHLPS],0
23,ELILNHIVP [5T4 9-mer peptide 89 ELILNHIVP],0

# Molecular target: T4, MHC class I molecule B*0702 (biotin (bound to streptavidin-coated plate))
# T4 construct: also called B7; HLA-B7
# Experiment: iTopia iScore
# Method: as §1, §2
row,Binder,iScore
1,LPSLRQLDL [5T4 9-mer peptide 71 LPSLRQLDL],0.454
2,LPSLRHLDL [5T4 9-mer peptide 117 LPSLRHLDL],0.445
3,SPLVELILN [5T4 9-mer peptide 87 SPLVELILN],0
4,ADLSPFAFS [5T4 9-mer peptide 78 ADLSPFAFS],0
5,VRAGAFEHL [5T4 9-mer peptide 67 VRAGAFEHL],0.085
6,NLFLTGNQL [5T4 9-mer peptide 48 NLFLTGNQL],0
7,RLDEVRAGA [5T4 9-mer peptide 65 RLDEVRAGA],0.032
8,PPLAELAAL [5T4 9-mer peptide 58 PPLAELAAL],0.145
9,LSHNPLADL [5T4 9-mer peptide 75 LSHNPLADL],0
10,PLADLSPFA [5T4 9-mer peptide 77 PLADLSPFA],0
11,AALNLSGSR [5T4 9-mer peptide 61 AALNLSGSR],0
12,RRPPLAELA [5T4 9-mer peptide 57 RRPPLAELA],0
13,LSPFAFSGS [5T4 9-mer peptide 79 LSPFAFSGS],0
14,SLRQLDLSH [5T4 9-mer peptide 72 SLRQLDLSH],0
15,IVPPEDERQ [5T4 9-mer peptide 92 IVPPEDERQ],0
16,RQLDLSHNP [5T4 9-mer peptide 73 RQLDLSHNP],0
17,PFAFSGSNA [5T4 9-mer peptide 80 PFAFSGSNA],0
18,VLPAGAFAR [5T4 9-mer peptide 53 VLPAGAFAR],0
19,LAELAALNL [5T4 9-mer peptide 59 LAELAALNL],0.074
20,LAVLPAGAF [5T4 9-mer peptide 52 LAVLPAGAF],0.049
21,EHLPSLRQL [5T4 9-mer peptide 70 EHLPSLRQL],0
22,AGAFEHLPS [5T4 9-mer peptide 68 AGAFEHLPS],0
23,ELILNHIVP [5T4 9-mer peptide 89 ELILNHIVP],0
